In assay [1] the target is LZ-Las17(281–633), biotinylated leucine zipper dimeric form of Las17 residues 281–633 (S. cerevisiae). Briefly: supernatant depletion binding assay; biotinylated LZ-Las17(281–633) dimer on magnetic streptavidin beads (16 nM to 2.06 μM dimer for the WT isotherm; 0.6 μM dimer for mutants and CA fusions); 50 nM Arp2/3 complex in solution; 1x PC buffer plus 0.05% Tween-20; 70 min, room temperature; Arp2/3 complex left in the supernatant quantified by anti-Arp3 dot blot.

Assay [2] deals with Monomeric Las17(281–633) (S. cerevisiae) (UniProt Q12446).
Assay [3] addresses LZ-Myo5(1146–1220), biotinylated leucine zipper dimeric form of the Myo5 CA segment (S. cerevisiae) (UniProt P03069). In words: supernatant depletion binding assay; biotinylated LZ-Myo5–CA dimer on magnetic streptavidin beads (25 nM to 1.6 μM dimer for the WT isotherm; 0.4 μM dimer for mutants); 50 nM Arp2/3 complex in solution; 1x PC buffer plus 0.05% Tween-20; 70 min, room temperature; Arp2/3 complex left in the supernatant quantified by anti-Arp3 dot blot.

Regarding “S. cerevisiae Arp2/3 complex with ARPC1(F183A, K185D) (from UniProt P47117 1-449; P32381 1-391; P38328 1-384; P53731 1-342)”, in assay [1], the reduction in binding compared with the WT complex was 50%.
The same measure, in the same setting: next, “S. cerevisiae Arp2/3 complex with Arp2(V142A, Y146A) (from UniProt P47117 1-449; P32381 1-391; P38328 1-384; P53731 1-342)”: 50%.
For the substance “S. cerevisiae Arp2/3 complex with Arp3(R371D) (from UniProt P47117 1-449; P32381 1-391; P38328 1-384; P53731 1-342)”, the reduction in binding compared with WT Arp2/3 complex in assay [1] amounted to 30%. Further, the maximum polymerization rate in pyrene actin polymerization assay as percent of WT activity; 20 nM Arp2/3 complex, 3 μM 15% pyrene actin, Las17(281–633), PC buffer (% of the WT activity) in assay [2] was 56.
In turn, “S. cerevisiae Arp2/3 complex with Arp3(R403D, K404D) (from UniProt P47117 1-449; P32381 1-391; P38328 1-384; P53731 1-342)” yielded a maximum polymerization rate in pyrene actin polymerization assay as percent of WT activity; 20 nM Arp2/3 complex, 3 μM 15% pyrene actin, 1.5 μM monomeric Las17(281–633), PC buffer (% of the WT activity) in assay [2] of 20.
In assay [2], “S. cerevisiae Arp2/3 complex with Arp3(W191A, T192A) (from UniProt P47117 1-449; P32381 1-391; P38328 1-384; P53731 1-342)” yielded a maximum polymerization rate in pyrene actin polymerization assay as percent of WT activity; 20 nM Arp2/3 complex, 3 μM 15% pyrene actin, 1.5 μM monomeric Las17(281–633), PC buffer (% of the WT activity) of 17.
Turning to “S. cerevisiae Arp2/3 complex with the CA segment of N-WASP fused to Arp2 (Arp2–CA fusion complex) (from UniProt P47117 1-449; P38328 1-384; P53731 1-342)”, in assay [1], the percent of the complex pulled down at 0.6 μM (LZ-Las17(281–633))2 turned out to be 30%.
Same read-out and setting: next, “S. cerevisiae Arp2/3 complex with the CA segment of N-WASP fused to Arp3 (Arp3–CA fusion complex) (from UniProt P32381 1-391; P38328 1-384; P53731 1-342)”: 73%.
Take “WT S. cerevisiae Arp2/3 complex (ARPC2 with C-terminal tandem 12xHis and TwinStrep tags) (from UniProt P47117 1-449; P32381 1-391; P38328 1-384; P53731 1-342)”: the results for the Kd in assay [3] and in assay [1] were 130 nM and 160 nM, respectively.

The term Kd denotes the free concentration of one partner at which half of the binding sites on the other are occupied at equilibrium, for simple one-to-one binding.

Values taken from article PMC10944109.
